Results reported in patent US7807387B2, “Biological agent that causes IL-6 receptor release” (Meyer Pharmaceuticals LLC, priority 2003, dated 2010).
Marks after values point to notes of the source that are not given here.

Key:
[1] = tested on: human IL-1 type 1 and type 2 receptors; assay: FRET peptide cleavage assay, IL-1 receptor peptides; type: biochemical
Procedure: Cytokine-specific proteolytic activity can rapidly be quantified by Fluorescence Resonance Energy Transfer (FRET). Peptides having the amino acid sequence of the TNF Receptor or other protein substrates are labeled at opposite ends with a fluorescence emitter and a fluorescence quencher. The peptide is then incubated with a source of receptor cleaving enzyme, and fluorescence is measured. The quenching group normally absorbs fluorescence from the emitter. But enzymatic cleavage of the peptide decouples the quenching group, and fluorescence emission increases proportionally.
The peptides used as substrates in the cleavage assay were taken from the known sites of proteolytic cleavage of the whole protein. The peptides were labeled with the fluorescence emitter (Edans-●) at the C-terminal, and the quenching hapten (Dabcyl-▴) at the N-terminal.
The assay is conducted in the presence of the metal cations Zn^++ (0.1 mM) and Ca^++ (2 mM), and corrected for cleavage in the presence of EDTA (20 mM). Dependence on divalent cations confirms that the enzyme activity measured in this assay is a metalloprotease. The assay mixture also contains a cocktail of protease inhibitors and bovine albumin. Cleavage is measured as the net change in fluorescence emission after incubating the enzyme with the peptide at 37° C. for 3 hours. […]

[2] = tested on: collagen-induced arthritis; assay: Collagen-induced arthritis, treatment of established disease; type: in vivo
Procedure: Collagen-induced arthritis is a standard model for evaluating potential therapeutic agents for rheumatoid arthritis (Courtenay et al., Nature 283:666, 1980; Williams et al., Proc Natl Acad Sci USA 89:9784, 1992; Gerlag et al., J Immunol 165:1652, 2000). Arthritis was induced in 7-9 week old female DBA/1 LacJ mice by immunization with collagen. On day 0, the mice were injected at the base of the tail with 100 μg bovine type II collagen in complete Freund's adjuvant. On day 7, mice were boosted with an intraperitoneal injection of 100 μg collagen. To enhance and synchronize synovitis, the mice were injected subcutaneously on day 14 with 100 μg of lipopolysaccharide (LPS). Joint swelling was monitored in a blinded fashion by measuring the diameter in all 4 paws and both ankles using a constant pressure gauge. Arthritis Index was also determined on the following scale, and summed for all extremities. 0≡normal; 1≡one digit swollen; 2≡more than one digit swollen; 3≡joint distortion; 4≡ankylosis. The arthritis experiments were conducted under contract by Calvert Preclinical Services, Inc., Olyphant Pa.
Mice were immunized with collagen on days 0, and 7, and then boosted with LPS on day 14. Treatment with MP8 was initiated on day 22 when arthritis was well established. At that time, animals with arthritis were randomized into three groups, and unaffected animals were excluded. The three affected groups were then treated for 18 consecutive days with saline control, or with MP8 at either of two different doses.

p55 TNF Receptor = molecular target: T1, p55 TNF Receptor (Homo sapiens, UniProt P19438); assay: Cleavage of cell surface p55 TNF receptor on THP-1 cells; type: cell-based; details: 45 minutes at 37° C.
T1 construct: endogenous in cells; host or cells: THP-1
T1 sequence (P19438 30-455): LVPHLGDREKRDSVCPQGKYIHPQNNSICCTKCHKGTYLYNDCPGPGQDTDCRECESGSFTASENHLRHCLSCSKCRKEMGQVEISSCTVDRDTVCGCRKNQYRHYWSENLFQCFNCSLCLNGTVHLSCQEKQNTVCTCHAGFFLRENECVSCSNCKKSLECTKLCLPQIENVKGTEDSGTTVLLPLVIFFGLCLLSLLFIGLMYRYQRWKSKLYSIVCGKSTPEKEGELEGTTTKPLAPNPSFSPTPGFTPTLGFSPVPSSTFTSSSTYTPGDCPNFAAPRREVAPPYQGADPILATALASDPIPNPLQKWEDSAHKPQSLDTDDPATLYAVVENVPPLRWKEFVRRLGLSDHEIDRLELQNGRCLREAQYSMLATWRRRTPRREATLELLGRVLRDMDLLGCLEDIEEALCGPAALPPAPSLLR
Procedure: This cell line expresses both the p55 TNF receptor and the p75 TNF receptor. After incubating for 45 minutes at 37° C., the cells were washed, immunostained for cell surface receptor, and counted by flow cytometry.

[3] = tested on: Experimental Autoimmune Encephalomyelitis; assay: Experimental Autoimmune Encephalomyelitis (EAE); type: in vivo, SJL/J mice; details: for Day of Onset (±SEM): p < 0.001; for Peak Clinical Score (±SEM): scale 0-5
Procedure: The EAE model (Brown et al., Lab. Invest. 45:278, 1981) was conducted as follows. Female SJL/J mice (6 weeks old) were randomized into 3 groups of 10. 2 mL of Myelin Proteolipid Peptide (PLP) was emulsified in 3 mL of Complete Freund's Adjuvant containing an additional 20 mg of M. tuberculosis H37Ra. On day 0, mice were immunized subcutaneously in the base of the tail and footpad with a total of 60 μg PLP. They were also given […] pertussis toxin i.p. on days 0 and 2. MP8 or saline control was administered s.c. every day from day −3 to day 20. Progression of the disease was measured up to day 21 on the following scale: 0≡normal; 1≡limp tail or hind limb weakness; 2≡both limp tail and hind limb weakness; 3≡partial hind limb paralysis; 4≡complete hind limb paralysis; 5≡moribund or sacrificed.

TNF receptor [4] = assay: Cell surface cleavage assay, release of TNF receptor isoforms by enzyme immunoassay; type: cell-based; details: 25 μg protein with 2.5×10^6 cells; (treated—untreated)/untreated
Procedure: To determine cell surface cleavage activity, 25 μg of MP8-FL2 was combined with 2.5×10^6 cells. Release of both TNF receptor isoforms was determined by enzyme immunoassay as (treated—untreated)/untreated.

TNF receptor [5] = assay: TNF receptor release in vivo after subcutaneous injection; design: species or system Balb/c mice
Procedure: To determine if the enzyme cleaves TNF receptors in vivo, 100,000 FU of purified MP8 was injected subcutaneously as a 500 μL bolus into female Balb/c mice. Control mice were injected with saline. Serum was sampled periodically, and tested for cytokine levels using ELISA kits from R&D System.

[6] = Stability of receptor cleaving activity upon storage (FRET assay); type: physicochemical; details: a month of storage at 4° C. or −70° C., purified form
Procedure: The stability of MP8 was determined by storing aliquots of MP8 at 4° C. or −70°. Aliquots were taken out periodically to determine enzyme cleaving activity in the fluorescence resonance energy transfer peptide cleavage assay.

[7] = 100,000 FU s.c. every day from day −3 to day 20
[8] = 300,000 FU s.c. every day from day −3 to day 20

B1: MP8: polypeptide having the sequence of SEQ. ID NO:41 (usually with a HIS tag); cytokine receptor releasing protein expressed in E. coli (protein, listed as Homo sapiens)
chain: WIQRIRHEGNSTVYEWRTGTEPSVVERPHLEELPEQVAEDAIDWGDFGVEAVSEGTDSGISAEAAGIDWGIFPESDSKDPGGDGIDWGDDAVALQITVLEAGTQAPEGVARGPDALTLLEYTETRNQFLDELMELEIFLAQRAVELSEEADVLSVSQFQLAPAILQGQTKEKMVTMVSVLEDLIGKLTSLQLQHLFMILASPRYVDRVTEFLQQKLKQSQLLALKKELMVQKQQEALEEQAALEPKLDLLLEKTKELQKLIEADISKRYSGRPVNLMGTSL
modifications: HIS tag
notes: ID NO:41 (usually with a HIS tag); cytokine receptor releasing protein expressed in E. coli
- cleavage of IL-1 receptor [1]: cleaves
- toxicity ([2]; MP8 treated groups): No toxicity was detected
- swelling in the affected joints ([2]; daily for 18 days from day 22, two doses, p<0.001 vs control): highly significant reduction in swelling
- severity of inflammatory synovitis by histopathology ([2]; higher dose, end of experiment): lower severity of inflammatory synovitis
- level of antibodies to type II collagen in serum ([2]; low or high dose, ELISA, p<0.02): almost half the control
- cleavage of p55 TNF receptor on the surface of cells (p55 TNF Receptor): cleaves
- Incidence of Disease [3, 7]: 5 out of 7
- Day of Onset (±SEM) [3, 7]: 18.0 ± 0.8 ^a
- Peak Clinical Score (±SEM) [3, 7]: 2.4 ± 0.7
- Incidence of Disease [3, 8]: 3 out of 7
- Day of Onset (±SEM) [3, 8]: 18.0 ± 2.5 ^a
- Peak Clinical Score (±SEM) ([3]; 300,000 FU s.c. every day from day −3 to day 20, p < 0.01): 1.0 ± 0.5 ^b
- emergence of symptoms ([3]; delayed from 12 days): 18 days
- weight gain of treated animals ([3]; mouse, in vivo): continued to show normal weight gain
- cleavage and release of TNF receptor from the cell surface (TNF receptor [4]): cause cleavage and release of TNF receptor, with preference for the R1 (p55) isoform
- persistence of the effect after administration (TNF receptor [5]; 100,000 FU subcutaneously): 48 h
- persistence of released receptors in the circulation (TNF receptor [5]; other experiments): at least 6 days
- loss of peptide cleaving activity on storage [6]: no detectable loss of activity
